Experimental data: patent US20250221936A1, “ENGINEERED HEMICHANNELS, ENGINEERED VESICLES, AND USES THEREOF” (VIRGINIA TECH INTELLECTUAL PROPERTIES, INC., priority 2018, published 2025)
Read-outs that look alike come from different tables or passages of the source.

Columns and labels:
C6 glioma cell line = settings: cited from earlier work
silicone implants = settings: days 1, 2, 3, 14, and 28; cited from earlier work
GST-Cx43 CT QQ/KK = biological target: T1, GST-Cx43 CT QQ/KK (Rattus norvegicus, UniProt P08050, K345Q/K346Q); experiment: EDC cross-linking, Cx43 CT QQ/KK mutant substrate; type: binding; settings: 5, 10 and 25 μM
T1 construct: pGEX-6-P2 Cx43 CT amino acids 255-382; made in house; host or cells: E. coli BL21
T1 sequence (P08050 255-382 K345Q/K346Q): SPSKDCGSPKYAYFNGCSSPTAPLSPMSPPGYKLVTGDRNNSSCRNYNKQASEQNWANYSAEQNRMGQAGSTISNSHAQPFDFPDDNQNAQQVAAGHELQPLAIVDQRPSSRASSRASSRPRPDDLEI
Method: (§1) To characterize the interaction between the Cx43 CT substrate and peptides, the in vitro kinase assay was performed as above with modification and the constituents then subjected to a cross-linking reaction. The assay buffer used was 20 mM 3-(N-morpholino) propanesulfonic acid (MOPS), pH 7.2. All other reagents present in the kinase reaction were maintained as described above. The reaction was allowed to proceed at 37° C. for 15 minutes. Afterwards, the carbodiimide crosslinker 1-Ethyl-3-(3-dimethylaminopropyl) carbodiimide HCl (EDC) (Thermo, 22980) was added to each solution for a final concentration of 20 mM. The solution was allowed to cross-link for one hour at room temperature. The reaction was stopped by the addition of 4×LDS loading buffer, boiled for 5 minutes and subsequently separated by PAGE. The resulting gel was stained in Coomassie brilliant blue (Sigma, B0770) for two hours and destained in a solution of 4% methanol 7% acetic acid overnight. Gel bands were subsequently excised for mass spectrometric analysis. For the direct interaction between protein and peptides, PBS, pH 7.5 was used as the coupling buffer. The protein (50 μg/ml) and peptide (25 μM) were allowed to react at room temperature for one hour before EDAC was added to the reaction mixture. The reaction was Western blotted for Cx43, GST or NeutroAvidin.

implants = experiment: Inflammatory infiltrate at implants, myeloperoxidase stain; type: in vivo; settings: 24 hour time point
Text: In attempting to quantify the neutrophil infiltrate using a myeloperoxidase stain, the inventors observed that some of the cells stained darker than others. Upon further investigation, these cells were not neutrophils as but rather were macrophages.

PKC-ε = biological target: T2, PKC-ε (Homo sapiens, UniProt Q02156); experiment: EDC cross-linking and MS/MS, PKC-ε; type: binding
T2 construct: purchased Life 37717L
T2 sequence (Q02156 1-737): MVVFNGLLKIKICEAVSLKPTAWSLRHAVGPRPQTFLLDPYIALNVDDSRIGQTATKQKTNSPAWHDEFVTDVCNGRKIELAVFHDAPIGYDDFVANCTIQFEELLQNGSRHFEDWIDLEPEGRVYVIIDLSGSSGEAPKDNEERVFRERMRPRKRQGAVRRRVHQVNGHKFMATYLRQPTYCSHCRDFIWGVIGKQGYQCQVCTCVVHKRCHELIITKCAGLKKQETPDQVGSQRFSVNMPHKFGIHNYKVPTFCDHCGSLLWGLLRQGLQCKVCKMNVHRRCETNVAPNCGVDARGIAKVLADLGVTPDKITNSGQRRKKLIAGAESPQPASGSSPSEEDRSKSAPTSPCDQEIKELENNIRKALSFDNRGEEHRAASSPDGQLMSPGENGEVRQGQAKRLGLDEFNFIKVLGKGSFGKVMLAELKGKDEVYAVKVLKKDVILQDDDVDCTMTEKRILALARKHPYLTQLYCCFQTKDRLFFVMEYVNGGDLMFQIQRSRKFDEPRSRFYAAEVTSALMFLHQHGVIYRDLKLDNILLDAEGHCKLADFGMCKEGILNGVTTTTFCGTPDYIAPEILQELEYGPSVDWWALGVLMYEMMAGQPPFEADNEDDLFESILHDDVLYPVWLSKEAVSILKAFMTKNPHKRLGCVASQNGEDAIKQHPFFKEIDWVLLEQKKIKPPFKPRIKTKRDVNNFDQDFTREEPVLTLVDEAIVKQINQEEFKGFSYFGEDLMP
Method: as §1, with “NeutroAvidin. […]” for “NeutroAvidin.”

[1] = 0.05% Brij-78, corneal application, cited from earlier work; for peptide in aqueous humor / peptide in vitreous humor: 20 and 40 minutes
silicon wafer implants = settings: 24 hours; cited from earlier work
cancer stem cells CSCs [2] = settings: CSCs derived from patient tumors; cited from earlier work
cancer stem cells CSCs [3] = experiment: Cancer stem cell survival; type: cell-based
Text: In another example, JM peptides can selectively target cancer stem cells CSCs. JM2 specific interaction with microtubules concomitantly with a loss of Cx43/microtubule complexing and a decrease in cell-cell communication in CSCs derived from patient tumors was confirmed. […] Current research includes the development of JM2-loaded biodegradable nanoparticles for JM2 sustained delivery in preparation for future clinical trials. In sum, the Cx43 mimetic peptide JM2 represents a novel and potent therapeutic opportunity to target chemoresistant CSCs in cancer treatment. This was described in (Lamouille et al., targeting glioblastoma cancer stem cells with a novel Connexin43 mimetic peptide [abstract]. In: Proceedings of the American Association for Cancer Research Annual Meeting 2017; 2017 Apr. 1-5; Washington, DC. Philadelphia (PA): AACR; Cancer Res 2017;77 (13 Suppl): Abstract nr 4765. doi: 10.1158/1538-7445.AM2017-4765), which is incorporated by reference. Further results can indicate that cancer stem cells derived from other cancers respond similarly to JM peptides. […]

Sequence	adhesive properties (C6 glioma cell line)	morphology (C6 glioma cell line)	wound-healing and foreign body responses (silicone implants)	EDC cross-linking to Cx43 CT QQ/KK mutant substrate (GST-Cx43 CT QQ/KK)	type of inflammatory infiltrate (implants)	interaction with PKC-ε (PKC-ε)	peptide in aqueous humor [1]	peptide in vitreous humor [1]	peptide in aqueous humor ([1]; listed as ACTI)	peptide in vitreous humor ([1]; listed as ACTI)	peptide in retinal pigment epithelial layer [1]	peptide in retinal pigment epithelial layer ([1]; listed as ACTI)	tissue reaction zone (silicon wafer implants)	CSC survival (cancer stem cells CSCs [2])	viability and self-renewal of colon cancer stem cells (cancer stem cells CSCs [3])
RQPKIWFPNRRKPWKKRPRPDDLEI [alpha CT1]	did not change in response to peptide treatment	altered morphology	attenuating neutrophil infiltration, increasing vascularity of the capsule tissue, reducing type I collagen deposition around the implant, and reducing the continued presence of contractile myofibroblasts	no evidence of cross-linking	the primary inflammatory infiltrate was macrophages	no evidence for interaction between PKCE and alpha CT1	detectable level of ACT1 in the internal fluids of the anterior chamber	Lower levels of ACT1 could also be detected	detectable level of ACTI in the internal fluids of the anterior chamber	Lower levels of peptide could also be detected	ACT1 was detectable in the retinal pigment epithelial layer	peptide was detectable in the retinal pigment epithelial layer	–	–	–
VFFKGVKDRVKGRSD [JM2]	–	–	–	–	–	–	–	–	–	–	–	–	substantially narrower tissue reaction zone	decreases CSC survival in vitro and in vivo	effectively reduced the viability and self-renewal of cancer stem cells from patients with colon cancer
